The target in the assay is T1, soluble mesothelin (human, UniProt Q13421).
T1 chain: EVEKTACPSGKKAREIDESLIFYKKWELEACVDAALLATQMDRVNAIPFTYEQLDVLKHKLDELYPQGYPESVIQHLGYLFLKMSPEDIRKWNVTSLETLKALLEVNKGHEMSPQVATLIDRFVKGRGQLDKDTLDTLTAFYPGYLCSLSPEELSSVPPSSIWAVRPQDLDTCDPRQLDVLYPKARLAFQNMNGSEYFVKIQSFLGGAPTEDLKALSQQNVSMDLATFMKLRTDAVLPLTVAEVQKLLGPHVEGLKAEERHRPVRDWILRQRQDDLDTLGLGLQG
Kind of assay: ELISA. On the technique in general: In an ELISA, binding on a coated surface is turned into a signal by an enzyme label.

B1: Gly1-2-H4 (antibody, V domains shown)
VH: QVQLVQSGAEVKKPGSSVKVSCKSSGGTFSSDTINWVRQAPGQGLEWMGWINPNSGGTNYAQKFQGWVTMTRDTSISTAYMELSRLRSDDTAVYYCARESALGGSYPLSFWGQGTLVTVSS
VL: ETTLTQSPGTLSLSPGERATLSCRASQSVSSSYLAWYQQKPGQAPRLLIYGASSRATGIPDRFSGSGSGTDFTLTISRLEPEDSATYYCLQDDSYPLTFGQGTKVEIK
As for B1, the binding result was “no binding”.

Values taken from patent publication US20260337263 (published 2026).
